The values that follow come from FireProtDB (doi:10.1038/nsb0196-54).

For the data set the following is noted: Escherichia coli; pH 7; Thermal; CD; Sodium phosphate 10 mM; NaCl 350 mM; whole UniProt chain shown.

B1: Regulatory protein rop wild type, P03051 (protein)
chain: MTKQEKTALNMARFIRSQTLTLLEKLNELDADEQADICESLHDHADELYRSCLARFGDDGENL
Turning to B1, the Tm (in general, the temperature at which the thermal transition is half complete) was 68.7 °C.
